US20240279310A1
Where two headings read alike, the source gives them in different places.

Assays:
Assay in all cases: cell-based or functional assay
[1] = molecular target: APRIL+BAFF (15 nM APRIL+10 nM BAFF) in combination
[2] = molecular target: APRIL+BAFF (15 nM APRIL+10 nM BAFF) in combination; remark: listed apart in the source
[3] = molecular target: recombinant human APRIL (Tonbo Biosciences) (human) (UniProt O75888)
Chain of recombinant human APRIL (Tonbo Biosciences) (human) (O75888 105-250 limits assumed): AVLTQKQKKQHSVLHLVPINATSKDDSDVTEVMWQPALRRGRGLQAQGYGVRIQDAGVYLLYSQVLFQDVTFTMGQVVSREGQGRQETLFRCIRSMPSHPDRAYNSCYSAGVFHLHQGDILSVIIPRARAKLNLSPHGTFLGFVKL

Binder | IC50 (pM) BAFF + APRIL [1] | IC50 (pM) BAFF + APRIL [2] | IC50 (pM) APRIL [3]
atacicept (WT TACI-Fc sequences corresponding to atacicept, containing WT TACI 30-110; SEQ ID NO:132) (Fc fusion) AMRSCPEEQYWDPLLGTCMSCKTICNHQSQRTCAAFCRSLSCRKEQGKFYDHLLRDCISCASICGQHPKQCAYFCENKLRSEPKSSDKTHTCPPCPAPEAEGAPSVFLFPPKPKDTLMISRTPEVTCVVVDVSHEDPEVKFNWYVDGVEVHNAKTKPREEQYNSTYRVVSVLTVLHQDWLNGKEYKCKVSNKALPSSIEKTISKAKGQPREPQVYTLPPSRDELTKNQVSLTCLVKGFYPSDIAVEWESNGQPENNYKTTPPVLDSDGSFFLYSKLTVDKSRWQQGNVFSCSVMHEALHNHYTQKSLSLSPGK | 7720 pM |  | 
anti-APRIL mAb BION-1301 (antibody, INN chains, looked up, V domains shown) VH: QVQLVQSGAEVKKPGASVKVSCKASGYTFTDYTIHWVRQATGQGLEWMGWIYPLRGSINYAQKFQGRVTMTADKSISTVYMELSSLRSEDTAVYFCARHGAYYSNAFDYWGQGTLVTVSS VL: EIVMTQSPATLSVSPGERATLSCRASESVDNDGIRFLHWYQQKPGQAPRLLIYRASTRATGIPARFSGSGSRTEFTLTISSLQSEDFAVYYCQQSNKDPYTFGGGTKVEIK |  | > 100000 pM | 4900 pM
belimumab, anti-BAFF monoclonal antibody (antibody, INN chains, looked up, V domains shown) VH: QVQLQQSGAEVKKPGSSVRVSCKASGGTFNNNAINWVRQAPGQGLEWMGGIIPMFGTAKYSQNFQGRVAITADESTGTASMELSSLRSEDTAVYYCARSRDLLLFPHHALSPWGRGTMVTVSS VL: SSELTQDPAVSVALGQTVRVTCQGDSLRSYYASWYQQKPGQAPVLVIYGKNNRPSGIPDRFSGSSSGNTASLTITGAQAEDEADYYCSSRDSSGNHWVFGGGTELTVLG |  | > 100000 pM | 
26 TACI CRD2-Fc (TACI vTD SEQ ID NO:26, K77E/F78Y/Y102D; Fc fusion SEQ ID NO: 167) (Fc fusion) SLSCRKEQGEYYDHLLRDCISCASICGQHPKQCADFCENKLRSGSGGGGSEPKSSDKTHTCPPCPAPEAEGAPSVFLFPPKPKDTLMISRTPEVTCVVVDVSHEDPEVKFNWYVDGVEVHNAKTKPREEQYNSTYRVVSVLTVLHQDWLNGKEYKCKVSNKALPAPIEKTISKAKGQPREPQVYTLPPSRDELTKNQVSLTCLVKGFYPSDIAVEWESNGQPENNYKTTPPVLDSDGSFFLYSKLTVDKSRWQQGNVFSCSVMHEALHNHYTQKSLSLSPG | 1390 pM |  | 
